The record followed here is US20120077731A1 (Ablynx, published 2012).

Assay [1] deals with T1, Human plasma sIL-6R (human, UniProt P08887 20-355, limits assumed).
T1 construct: also called plasma-derived human IL-6R
T1 sequence (looked up): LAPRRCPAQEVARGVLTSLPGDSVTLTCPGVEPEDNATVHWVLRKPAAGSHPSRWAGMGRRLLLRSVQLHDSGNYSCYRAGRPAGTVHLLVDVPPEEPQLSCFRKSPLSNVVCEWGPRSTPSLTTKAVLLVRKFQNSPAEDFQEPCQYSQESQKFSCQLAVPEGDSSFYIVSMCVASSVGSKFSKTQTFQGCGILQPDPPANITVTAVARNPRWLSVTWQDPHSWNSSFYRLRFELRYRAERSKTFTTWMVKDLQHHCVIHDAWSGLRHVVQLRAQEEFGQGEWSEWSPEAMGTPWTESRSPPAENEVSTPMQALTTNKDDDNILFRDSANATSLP
Briefly: plasma potency ELISA, human plasma, high IL-6 (EC95).

Assay [2] has as its target T2, Human membrane IL-6R on cells (human, UniProt P08887 20-468).
T2 construct: whole, on cells; also called cell-surface expressed human IL-6R
T2 sequence (looked up): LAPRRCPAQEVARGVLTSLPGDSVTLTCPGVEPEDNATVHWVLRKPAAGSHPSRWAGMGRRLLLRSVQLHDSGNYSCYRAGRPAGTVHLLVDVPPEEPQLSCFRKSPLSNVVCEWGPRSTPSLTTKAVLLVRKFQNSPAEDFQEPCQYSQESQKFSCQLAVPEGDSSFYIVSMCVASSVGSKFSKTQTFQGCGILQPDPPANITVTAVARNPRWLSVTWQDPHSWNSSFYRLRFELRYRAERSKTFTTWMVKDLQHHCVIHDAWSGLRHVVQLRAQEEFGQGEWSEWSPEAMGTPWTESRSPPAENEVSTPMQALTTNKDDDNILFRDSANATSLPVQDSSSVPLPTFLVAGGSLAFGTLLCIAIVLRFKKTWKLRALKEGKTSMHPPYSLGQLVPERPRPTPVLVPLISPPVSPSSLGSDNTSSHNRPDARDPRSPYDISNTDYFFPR
Put plainly: flow cytometry, human PBL, lymphocytes donor 1.
Description: The Nanobodies were incubated in EDTA-treated blood from 2 donors and bound Nanobody was detected by flow cytometry. Lymphocytes, monocytes and granulocytes were gated based on FSC/SSC properties (FIG. 40) and bound Nanobodies were detected in the PE channel.

In assay [3] the target is T2, Human membrane IL-6R on cells. Put plainly: cell-based or functional assay.
Assay [4] shares this target. Briefly: cell-based or functional assay. The source holds these as a separate data set.
Assay [5] deals with T3, LIF-R (UniProt P42702 45-833, limits assumed).
T3 sequence (looked up): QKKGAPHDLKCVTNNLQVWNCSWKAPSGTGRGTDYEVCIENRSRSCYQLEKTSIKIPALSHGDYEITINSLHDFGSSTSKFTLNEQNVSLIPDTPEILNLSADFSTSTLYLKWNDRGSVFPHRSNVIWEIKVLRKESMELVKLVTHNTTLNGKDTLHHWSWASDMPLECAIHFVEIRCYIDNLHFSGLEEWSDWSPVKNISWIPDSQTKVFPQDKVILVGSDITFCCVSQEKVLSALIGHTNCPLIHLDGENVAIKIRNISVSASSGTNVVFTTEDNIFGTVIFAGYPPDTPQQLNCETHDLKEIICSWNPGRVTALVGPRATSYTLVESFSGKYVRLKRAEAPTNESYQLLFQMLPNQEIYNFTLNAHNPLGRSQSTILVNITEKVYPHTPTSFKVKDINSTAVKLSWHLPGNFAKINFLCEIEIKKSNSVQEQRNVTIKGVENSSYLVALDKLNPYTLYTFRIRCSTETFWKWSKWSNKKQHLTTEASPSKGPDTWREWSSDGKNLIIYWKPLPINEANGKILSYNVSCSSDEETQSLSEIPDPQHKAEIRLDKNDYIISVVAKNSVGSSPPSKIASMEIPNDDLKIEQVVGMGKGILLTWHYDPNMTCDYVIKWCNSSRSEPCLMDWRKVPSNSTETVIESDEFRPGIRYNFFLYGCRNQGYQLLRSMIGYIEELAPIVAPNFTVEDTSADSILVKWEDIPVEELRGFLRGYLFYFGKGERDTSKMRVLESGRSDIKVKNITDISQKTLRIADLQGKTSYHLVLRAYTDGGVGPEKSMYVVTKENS
Put plainly: competitive binding ELISA: IL6R20A11 (0.05 nM) pre-incubated with a series of the receptor; free IL6R20A11 captured on sIL-6R and detected via anti-His.

Assay [6] addresses T4, Human soluble IL-6R (human, UniProt P08887 20-358).
T4 construct: Soluble recombinant form; biotinylated in some assays; also called hIL-6R; human IL-6R
T4 sequence (looked up): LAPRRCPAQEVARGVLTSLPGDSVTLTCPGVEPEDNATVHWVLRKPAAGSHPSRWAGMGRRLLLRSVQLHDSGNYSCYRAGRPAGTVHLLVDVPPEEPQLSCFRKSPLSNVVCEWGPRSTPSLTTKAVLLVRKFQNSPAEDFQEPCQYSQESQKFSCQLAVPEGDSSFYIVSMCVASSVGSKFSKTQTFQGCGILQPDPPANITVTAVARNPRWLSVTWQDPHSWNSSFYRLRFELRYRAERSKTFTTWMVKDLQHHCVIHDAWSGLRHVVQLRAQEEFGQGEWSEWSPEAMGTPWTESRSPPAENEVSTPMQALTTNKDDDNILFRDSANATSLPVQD
Put plainly: Biacore T100, IL-6R covalently coupled.

The target of assay [7] is T2, Human membrane IL-6R on cells. Briefly: cell-based or functional assay. This is another data set of the same source.

B1: PMP20A11 (VHH)
VHH: EVQLVESGGGLVQPGGSLRLSCAASGSVFKINVMAWYRQAPGKGRELVAGIISGGSTSYADSVKGRFTISRDNAKNTLYLQMNSLRPEDTAVYYCAFITTESDYDLGRRYWGQGTLVTVSS
notes: also called IL6R20A11; IL6R300; not shown: c-myc and (His)6 tags
In turn, B1 had an IC50 in assay [1] of 0.356 nM. The EC50 in assay [2] amounted to 3.65 nM. In addition, the “IC50 (nM), TF-1 proliferation at 5000 IU/mL IL-6” value in assay [3] was 15.2 nM. For the same molecule, in assay [4], the “IC50, TF1 assay” value came to 0.4 nM. Moreover, the binding result in assay [5] is “no binding (tested: 5 nM (log conc 0.7))”. In assay [6], the koff was 1.9e-05 s⁻¹. Besides, the “IC50 (nM), TF-1 proliferation at 100 IU/mL IL-6” value in assay [7] was determined as 0.283 nM.
